This passage reports IC50 and Kd results from the Immune Epitope Database (IEDB).

Experiment [1] has as its target HLA-A*02:01. Put plainly: IEDB peptide-MHC binding, cellular MHC/competitive/fluorescence; ≥ and ≤ were set here for values at or beyond the usual limits of such assays.
For a further experiment, the target named is HLA-C*14:02. The experiment is described as follows: IEDB peptide-MHC binding, purified MHC/direct/fluorescence; filed as Kd, often an IC50 or EC50 that approximates it; ≥ and ≤ were set here for values at or beyond the usual limits of such assays.
Another experiment has as its target HLA-C*15:02. The experiment is described as above.
A further experiment addresses HLA-B*08:01. The description is as above.
For the next experiment, the target named is HLA-C*12:03. Described as above. The settings on record: source organism: Giardia lamblia ATCC 50803.
Experiment [2] addresses HLA-A*24:03. The experiment is described as follows: IEDB peptide-MHC binding, purified MHC/competitive/fluorescence; filed as Kd, often an IC50 or EC50 that approximates it; ≥ and ≤ were set here for values at or beyond the usual limits of such assays. Conditions: source organism: Bacillus cereus G9241.
A further experiment addresses HLA-B*15:03. The experiment is described as follows: IEDB peptide-MHC binding, purified MHC/competitive/radioactivity; filed as Kd, often an IC50 or EC50 that approximates it; ≥ and ≤ were set here for values at or beyond the usual limits of such assays. Conditions: source organism: Vaccinia virus WR.
Experiment [3] deals with HLA-A*11:01. The experiment is described as follows: IEDB peptide-MHC binding, purified MHC/competitive/fluorescence; ≥ and ≤ were set here for values at or beyond the usual limits of such assays. Conditions: source organism: Vaccinia virus WR.
In experiment [4] the target is HLA-B*15:01. Described as above. Conditions: source organism: Vaccinia virus WR.
The next experiment has as its target HLA-B*15:17. Put plainly: IEDB peptide-MHC binding, purified MHC/direct/fluorescence; filed as Kd, often an IC50 or EC50 that approximates it; ≥ and ≤ were set here for values at or beyond the usual limits of such assays.
A further experiment addresses HLA-A*69:01. The description is as above.
Another experiment concerns the target HLA-B*48:01. Described as above. Conditions: source organism: Camelpox virus M-96.
A further experiment concerns the target HLA-B*07:02. The experiment is described as above. Conditions: source organism: Camelpox virus M-96.
In another experiment the target is HLA-B*15:09. Described as above. The settings on record: source organism: Variola virus.
For another experiment, the target named is HLA-A*01:01. The experiment is described as above. Conditions: source organism: Camelpox virus M-96.
Experiment [5] has as its target HLA-B*15:01. The experiment is described as above.
In experiment [6] the target is HLA-A*02:01. The experiment is described as above.
In the next experiment the target is HLA-B*27:05. Described as above. The settings on record: source organism: Camelpox virus M-96.
The target of a further experiment is HLA-B*46:01. The experiment is described as above.
Another experiment has as its target HLA-B*58:01. Described as above. Conditions: source organism: Camelpox virus M-96.
The target in another experiment is HLA-B*57:01. The experiment is described as above.
The target of another experiment is HLA-B*08:03. Described as above. The settings on record: source organism: Variola virus.
The target in a further experiment is HLA-A*68:02. The experiment is described as above.
Experiment [7] concerns the target HLA-A*11:01. The experiment is described as follows: IEDB peptide-MHC binding, purified MHC/competitive/fluorescence; filed as Kd, often an IC50 or EC50 that approximates it; ≥ and ≤ were set here for values at or beyond the usual limits of such assays. Conditions: source organism: Vaccinia virus WR.
For a further experiment, the target named is HLA-A*31:01. The description is as above. The settings on record: source organism: Vaccinia virus WR.
For a further experiment, the target named is HLA-B*35:01. The description is as above. The settings on record: source organism: Vaccinia virus WR.
Experiment [8] addresses HLA-A*26:01. The experiment is described as above. The settings on record: source organism: Vaccinia virus WR.
The next experiment addresses HLA-A*30:01. The description is as above. The settings on record: source organism: Vaccinia virus WR.
In a further experiment the target is HLA-A*26:02. Described as above. The settings on record: source organism: Vaccinia virus WR.
A further experiment addresses HLA-C*05:01. The experiment is described as follows: IEDB peptide-MHC binding, purified MHC/direct/fluorescence; filed as Kd, often an IC50 or EC50 that approximates it; ≥ and ≤ were set here for values at or beyond the usual limits of such assays.
For the next experiment, the target named is HLA-A*02:16. Described as above. The settings on record: source organism: Listeria monocytogenes serotype 4b str. H7858.
The target of a further experiment is HLA-B*18:01. Described as above. Conditions: source organism: Listeria monocytogenes serotype 4b str. H7858.
The target in a further experiment is HLA-A*02:12. Described as above. Conditions: source organism: Listeria monocytogenes serotype 4b str. H7858.
The target in experiment [9] is HLA-A*26:01. The experiment is described as above. The settings on record: source organism: Listeria monocytogenes serotype 4b str. H7858.
In another experiment the target is HLA-B*51:01. Described as above. The settings on record: source organism: Listeria monocytogenes serotype 4b str. H7858.
The next experiment has as its target HLA-A*02:03. The experiment is described as above. The settings on record: source organism: Listeria monocytogenes serotype 4b str. H7858.
Another experiment has as its target HLA-A*02:19. The description is as above. The settings on record: source organism: Listeria monocytogenes serotype 4b str. H7858.
The target of the next experiment is HLA-A*29:02. The description is as above. Conditions: source organism: Listeria monocytogenes serotype 4b str. H7858.
The next experiment has as its target HLA-A*02:11. Described as above. Conditions: source organism: Listeria monocytogenes serotype 4b str. H7858.
In experiment [10] the target is HLA-A*24:03. The experiment is described as above. Conditions: source organism: Listeria monocytogenes serotype 4b str. H7858.
The target in the next experiment is HLA-B*27:03. Described as above. The settings on record: source organism: Listeria monocytogenes serotype 4b str. H7858.
In a further experiment the target is HLA-A*03:01. The experiment is described as above. Conditions: source organism: Listeria monocytogenes serotype 4b str. H7858.
Where [11] appears, read: source organism: Giardia lamblia ATCC 50803.
Setting [12] is: source organism: Camelpox virus M-96.
The mark [13] stands for this setting: source organism: Burkholderia pseudomallei 1710b.
Setting [14] is: source organism: Listeria monocytogenes serotype 4b str. H7858.

For LGIVCPI, the half-inhibitory concentration (IC50) (usually the concentration that inhibits the measured activity by half) with HLA-A*02:01 [1] (source organism: Human papillomavirus 16) was found to be 0.7 µM.
YLYLRPYAL: the Kd – broadly, the free concentration of one partner at which half of the binding sites on the other are occupied at equilibrium, for simple one-to-one binding – in the experiment with HLA-C*14:02 (setting [11]) came out at 0.151 µM; in the experiment with HLA-C*15:02 (setting [11]) it was 3.05 µM; with HLA-B*08:01 (setting [11]), 0.016 µM; with HLA-C*12:03, 0.029 µM.
On to KFIILLTSF, for which the Kd is 1.23 µM with HLA-C*14:02 (source organism: Bacillus cereus G9241) and 0.159 µM with HLA-A*24:03 [2].
On to IQFMHEQGY, for which the dissociation constant (Kd) is 0.00366 µM in the experiment with HLA-B*15:03; 0.29 µM with HLA-B*15:17 (setting [12]); no less than 20 µM with HLA-A*69:01 (setting [12]); no less than 20 µM with HLA-B*48:01; no less than 20 µM with HLA-B*07:02; no less than 20 µM with HLA-B*15:09. The Kd with HLA-A*01:01 was no less than 20 µM; in the experiment with HLA-B*15:01 [5] (setting [12]) it was 0.052 µM; in the experiment with HLA-A*02:01 [6] (setting [12]), no less than 20 µM; with HLA-B*27:05, 0.929 µM; with HLA-B*46:01 (setting [12]) it was no less than 20 µM; in the experiment with HLA-B*08:01 (source organism: Variola virus), no less than 20 µM. In addition, the Kd in the experiment with HLA-B*58:01 was no less than 20 µM; with HLA-B*57:01 (setting [12]), 1.96 µM; with HLA-B*08:03, no less than 20 µM; with HLA-A*68:02 (setting [12]) it was no less than 20 µM; in the experiment with HLA-A*11:01 [7], no less than 20 µM; with HLA-A*31:01, no less than 20 µM. Also, the dissociation constant Kd with HLA-B*35:01 is 0.104 µM; in the experiment with HLA-A*26:01 [8], no less than 20 µM; with HLA-A*30:01, 0.0024 µM; in the experiment with HLA-A*26:02, no less than 20 µM. Also, the IC50 is no less than 108 µM with HLA-A*11:01 [3] and 6.83 µM with HLA-B*15:01 [4].
APAAAAQAV: in the experiment with HLA-C*14:02 (source organism: Mycobacterium tuberculosis C), the Kd is 3.08 µM.
For KTADVTVVF, the Kd was found to be 0.06 µM with HLA-C*05:01 (setting [13]) and 0.253 µM with HLA-C*15:02 (setting [13]).
In turn, ALGGGATGV returned an IC50 with HLA-A*02:01 [1] (source organism: Mycobacterium tuberculosis) of 1.4 µM.
Take FRDEAGAIL: the dissociation constant (Kd) is no less than 20 µM in the experiment with HLA-A*02:16; no less than 20 µM with HLA-B*15:17 (setting [14]); no less than 20 µM with HLA-A*69:01 (setting [14]); 2.21 µM with HLA-C*05:01 (source organism: Listeria monocytogenes FSL R2-503); no less than 20 µM with HLA-B*15:01 [5] (setting [14]); no less than 20 µM with HLA-B*18:01. The dissociation constant (Kd) in the experiment with HLA-A*02:12, with HLA-A*02:01 [6] (setting [14]), with HLA-A*26:01 [9], in the experiment with HLA-B*46:01 (setting [14]), with HLA-B*51:01 and with HLA-B*57:01 (setting [14]) was no less than 20 µM throughout. Moreover, the equilibrium dissociation constant (Kd) in the experiment with HLA-A*02:03, with HLA-A*02:19, with HLA-A*29:02, with HLA-A*02:11, with HLA-A*68:02 (setting [14]) and with HLA-A*24:03 [10] was no less than 20 µM each time. Besides, the equilibrium dissociation constant (Kd) with HLA-B*27:03 and with HLA-A*03:01 was no less than 20 µM throughout.
In the case of VLDVGDAYFSV, the 50% inhibitory concentration (IC50) in the experiment with HLA-A*02:01 [1] (source organism: Human immunodeficiency virus 1) worked out at 7 µM.
